In PMC9629720, “Lipids mediate supramolecular outer membrane protein assembly in bacteria” (Science Advances, 2022):
One block for each molecule: values may come before it.

Key:
[1] = biological target: OmpF V177^BPA cross-linked to phospholipid (anion exchange peak 1) (E. coli) (UniProt P02931); assay: native MS; purified OmpF samples, 5 μM in 1% β-OG, 0.2 M ammonium acetate pH 6.9; the OmpF trimer itself
[2] = biological target: OmpF (endogenous, co-extracted with FepA^BPA) (E. coli (endogenous in BW25113)) (UniProt P02931); assay: native MS; FepA^BPA preparations with co-extracted porins, 5 μM in 1% β-OG, 0.2 M ammonium acetate pH 6.9; make-up of the porin trimers
[3] = biological target: OmpF, wild type, purified (E. coli) (UniProt P02931); assay: native MS; purified OmpF samples, 5 μM in 1% β-OG, 0.2 M ammonium acetate pH 6.9; the OmpF trimer itself
[4] = biological target: OmpF V177^BPA cross-linked to LPS (anion exchange peak 2) (E. coli) (UniProt P02931); assay: as above
[5] = biological target: T1, OmpF (endogenous, co-extracted with FepA^BPA) (E. coli (endogenous in BW25113), UniProt P02931 23-362); assay: native MS; FepA^BPA preparations with co-extracted porins, 5 μM in 1% β-OG, 0.2 M ammonium acetate pH 6.9; make-up of the porin trimers; settings: partners not purified
T1 construct: OmpF, 16-stranded β barrel porin of E. coli; Found as homotrimers and as heterotrimers with OmpC; also called OmpF/C; porins; source: endogenous, outer membrane of E. coli BW25113 ΔfepA
T1 sequence (looked up): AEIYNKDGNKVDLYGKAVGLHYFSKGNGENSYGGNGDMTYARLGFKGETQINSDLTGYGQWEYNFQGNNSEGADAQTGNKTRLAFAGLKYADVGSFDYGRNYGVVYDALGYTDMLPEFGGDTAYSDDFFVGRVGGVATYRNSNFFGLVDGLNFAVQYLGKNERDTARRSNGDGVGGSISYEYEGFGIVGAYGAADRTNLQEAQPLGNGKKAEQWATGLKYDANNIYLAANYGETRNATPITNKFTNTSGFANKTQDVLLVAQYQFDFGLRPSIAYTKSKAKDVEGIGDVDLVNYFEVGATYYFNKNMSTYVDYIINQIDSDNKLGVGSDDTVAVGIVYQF

[6] = biological target: the molecule itself; assay: as above

stoichiometry N [2]: 3
Molecule: OmpF (endogenous, co-extracted with FepA^BPA) (from UniProt P02931 23-362) (natural protein)

stoichiometry N [5]: 3
B1: OmpC (endogenous, co-extracted with FepA^BPA) (natural protein, E. coli (endogenous in BW25113), UniProt P06996 22-367, looked up)
chain: AEVYNKDGNKLDLYGKVDGLHYFSDNKDVDGDQTYMRLGFKGETQVTDQLTGYGQWEYQIQGNSAENENNSWTRVAFAGLKFQDVGSFDYGRNYGVVYDVTSWTDVLPEFGGDTYGSDNFMQQRGNGFATYRNTDFFGLVDGLNFAVQYQGKNGNPSGEGFTSGVTNNGRDALRQNGDGVGGSITYDYEGFGIGGAISSSKRTDAQNTAAYIGNGDRAETYTGGLKYDANNIYLAAQYTQTYNATRVGSLGWANKAQNFEAVAQYQFDFGLRPSLAYLQSKGKNLGRGYDDEDILKYVDVGATYYFNKNMSTYVDYKINLLDDNQFTRDAGINTDNIVALGLVYQF
notes: OmpC, porin, structural homolog of OmpF, E. coli; Found as homotrimers and as heterotrimers with OmpF; also called OmpF/C; porins; source: endogenous, outer membrane of E. coli BW25113 ΔfepA
stoichiometry N [6]: 3

Second part, the molecule before the results:

Molecule: OmpF V177^BPA cross-linked to phospholipid (anion exchange peak 1) (from UniProt P02931 23-362) (natural protein)
stoichiometry N [1]: 3

Molecule: OmpF, wild type, purified (from UniProt P02931 23-362) (natural protein)
stoichiometry N [3]: 3

Molecule: OmpF V177^BPA cross-linked to LPS (anion exchange peak 2) (from UniProt P02931 23-362) (natural protein)
stoichiometry N [4]: 3
